B1: DNA-binding protein HU 1, P08821 (parent)
chain: MNKTELINAVAEASELSKKDATKAVDSVFDTILDALKNGDKIQLIGFGNFEVRERSARKGRNPQTGEEIEIPASKVPAFKPGKALKDAVAGK
B2: DNA-binding protein HU, P0A3H0 (parent)
chain: MNKTELINAVAETSGLSKKDATKAVDAVFDSITEALRKGDKVQLIGFGNFEVRERAARKGRNPQTGEEMEIPASKVPAFKPGKALKDAVK

Tests used:
[1] = variants of: B1; settings: Bacillus subtilis (strain 168), pH 7, Thermal, CD, Sodium phosphate 5 mM, NaCl 0.2 M, reversible: yes, whole UniProt chain shown; for ddG of mutation (higher = less stable): 48.6 °C
[2] = variants of: B2; settings: Geobacillus stearothermophilus, pH 7, Thermal, structure 1HUE, whole UniProt chain shown; for ddG of mutation (higher = less stable): 63.9 °C
[3] = CD, Sodium phosphate 5 mM, NaCl 0.2 M, reversible: yes

Variant: I42V
- Tm [1]: 52.6 °C
- change of melting temperature, mutant - wild type (higher = more stable) [1]: 4 °C

Variant: E15G
- ddG of mutation (higher = less stable) [1]: -1.55 kcal/mol
- Tm [1]: 60.4 °C
- change of melting temperature, mutant - wild type (higher = more stable) [1]: 11.8 °C

Variant: E15G S27A D34E N38K I42V
- ddG of mutation (higher = less stable) [1]: -2.98 kcal/mol
- Tm [1]: 71.3 °C
- change of melting temperature, mutant - wild type (higher = more stable) [1]: 22.7 °C

Variant: D34E N38K
- ddG of mutation (higher = less stable) [1]: -0.45 kcal/mol
- Tm [1]: 52.1 °C
- change of melting temperature, mutant - wild type (higher = more stable) [1]: 3.5 °C

Variant: S27A
- ddG of mutation (higher = less stable) [1]: -0.73 kcal/mol
- Tm [1]: 54.2 °C
- change of melting temperature, mutant - wild type (higher = more stable) [1]: 5.6 °C

Variant: A27S
- Tm [2, 3]: 58.4 °C
- change of melting temperature, mutant - wild type (higher = more stable) [2, 3]: -5.5 °C
- unfolding enthalpy (van 't Hoff) [2, 3]: 76.5 kcal/mol

Variant: M69I
- ddG of mutation (higher = less stable) [2, 3]: 0 kcal/mol
- Tm [2, 3]: 63.9 °C
- change of melting temperature, mutant - wild type (higher = more stable) [2, 3]: 0 °C
- unfolding enthalpy (van 't Hoff) [2, 3]: 79.2 kcal/mol

Variant: A56S
- ddG of mutation (higher = less stable) [2, 3]: 0.13 kcal/mol
- Tm [2, 3]: 63.3 °C
- change of melting temperature, mutant - wild type (higher = more stable) [2, 3]: -0.6 °C
- unfolding enthalpy (van 't Hoff) [2, 3]: 83 kcal/mol

Variant: S31T
- ddG of mutation (higher = less stable) [2, 3]: -0.41 kcal/mol
- Tm [2, 3]: 65.8 °C
- change of melting temperature, mutant - wild type (higher = more stable) [2, 3]: 1.9 °C
- unfolding enthalpy (van 't Hoff) [2, 3]: 81.1 kcal/mol

Variant: E34D
- Tm [2, 3]: 61.6 °C
- change of melting temperature, mutant - wild type (higher = more stable) [2, 3]: -2.3 °C
- Tm ([2]; DSC, phosphate 0.05 M): 63.5 °C
- change of melting temperature, mutant - wild type (higher = more stable) ([2]; DSC, phosphate 0.05 M): -2.3 °C

Variant: K38N
- Tm [2, 3]: 61.5 °C
- change of melting temperature, mutant - wild type (higher = more stable) [2, 3]: -2.4 °C
- Tm ([2]; DSC, phosphate 0.05 M): 61.7 °C
- change of melting temperature, mutant - wild type (higher = more stable) ([2]; DSC, phosphate 0.05 M): -4.1 °C

Variant: V42I
- ddG of mutation (higher = less stable) [2, 3]: 0.82 kcal/mol
- Tm [2, 3]: 60.1 °C
- change of melting temperature, mutant - wild type (higher = more stable) [2, 3]: -3.8 °C
- unfolding enthalpy (van 't Hoff) [2, 3]: 54.7 kcal/mol
- Tm ([2]; DSC, phosphate 0.05 M): 59.6 °C
- change of melting temperature, mutant - wild type (higher = more stable) ([2]; DSC, phosphate 0.05 M): -6.2 °C

Variant: G15E
- Tm [2, 3]: 54 °C
- change of melting temperature, mutant - wild type (higher = more stable) [2, 3]: -9.9 °C
- Tm ([2]; DSC, phosphate 0.05 M): 55.7 °C
- change of melting temperature, mutant - wild type (higher = more stable) ([2]; DSC, phosphate 0.05 M): -10.1 °C
